Measured values taken from paper PMC10194977.

Legend:
[1] = target: Recombinant human PERK (EIF2AK3, active catalytic subunit of PERK protein) (human)
[2] = target: Recombinant human PERK (EIF2AK3, active catalytic subunit of PERK protein) (human); remark: listed apart in the source
[3] = target: Recombinant human PERK (EIF2AK3, active catalytic subunit of PERK protein) (human); remark: listed apart in the source

full-length recombinant human calcineurin-B (from UniProt P63098 1-170) (natural protein)
EC50 of activation of PERK kinase activity (ATP consumption, ADP-Glo luminescence; 87 nM PERK, 0.26 μM SMAD3 as substrate, 50 μM ATP; RT, 2 h; three-fold serial dilution of calcineurin-B) [1]: 2.72 µM
% of PERK activity (relative to control; ADP-Glo, SMAD3 substrate) with 0.87 μM calcineurin-B, 1 h at 37 °C (no significant activation) [2]: 99.5%
% of PERK activity (relative to control; ADP-Glo, SMAD3 substrate) with 0.87 μM calcineurin-B, 1 h at RT [2]: 106%
relative PERK kinase activity (% of basal activity; ADP-Glo, SMAD3 substrate) with 0.87 μM calcineurin-B at reaction times of 15, 30, 60 and 120 min, RT; highest value at 120 min [3]: 128%
